According to the supplement of paper PMC9170038:

System: MS2 coat protein
Test: apparent KD of MS2 coat protein; designed switch direction (-1 OFF switch, 1 ON switch): -1; higher = weaker reporter binding
How it was run: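 Designed RNA switches were transcribed on Illumina chips by stalled E. coli RNA polymerase and titrated with SNAP-549-labelled MS2 coat protein from 0.7 or 1.5 nM, doubling to 3 µM. Step length ran from 0.8–1.5 h at the lowest concentration to 10–20 min at the highest. The apparent KD is the median over clusters for each design, from curve-fitted normalised cluster fluorescence.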

[1] = Eterna round: R95, input ligand: FMN 200 uM
[2] = Eterna round: R95, input ligand: microRNA oligo, concentration not stated
[3] = Eterna round: R95, input ligand: none
[4] = input ligand: microRNA oligo, concentration not stated

CAGCUGUCAGGAUAUCGUGCAUACAACGAAAGUUCUAUGUGCGAGAAGGGACAUGAGGAUCACCCAUGUUUACG [Omei Ex4 A24] (Eterna round: R97, puzzle: Exclusion 4)
apparent KD of MS2 coat protein (input ligand: FMN 200 uM): 48 nM | apparent KD of MS2 coat protein (input ligand: none): 28.6 nM

AGUAGUAGUAUCCGUUCUUACAUGAGGAUCACCCAUGUUUCUAGACGUGCACGCGAUGCUCGUCAGACUACCAGAUG [salish99_TOv1_r3_054] (puzzle: Sensor v3, turn-off variant 1)
apparent KD of MS2 coat protein [1]: 61.2 nM | apparent KD of MS2 coat protein [2]: 72.3 nM | apparent KD of MS2 coat protein [3]: 68.9 nM

UUAAAUCAUGUAGGAUAUGCAUAGCAAAGCUAUGCAGAAGGACAUGAGGAUCACCCAUGUGCUUGCGUCCGCGUACGGAUGCUA [Mat - Exclusion NG 1 - Mod of JL - D68] (Eterna round: R96, puzzle: Exclusion NG 1)
apparent KD of MS2 coat protein (input ligand: FMN 200 uM): 733 nM | apparent KD of MS2 coat protein [4]: 90.5 nM | apparent KD of MS2 coat protein (input ligand: none): 138 nM

CCUCAGUAAGGAUAUCAGCUUAUAAAGUUGGUAAUGAGAGCUGAGAAGGUACAUGAGGAUCACCCAUGUUAGUU [JL Zatite mod 5] (puzzle: Exclusion 4)
apparent KD of MS2 coat protein [2]: 20.9 nM

GAGAAAGCAAGCAAGUGAAACAUGAGGAUCACCCAUGUCCUCAUUUGCUCGUCUUAUAAAAGCUAUCGAAAGAUAGC [Mat - Sensor v3 - turn-off var 1 - Eli Mod - D48] (puzzle: Sensor v3, turn-off variant 1)
apparent KD of MS2 coat protein [1]: 13.2 nM | apparent KD of MS2 coat protein [2]: 139 nM | apparent KD of MS2 coat protein [3]: 10.3 nM

AAGAAACAUGAGGAUCACCCAUGUGAGGAUAUGUAAAGAAAAGAAAAAGAAAAGAAAAACAGAAGGCACAAAGA [JR_Exclusion1_Sub001] (puzzle: Exclusion 1)
apparent KD of MS2 coat protein [1]: 38.7 nM | apparent KD of MS2 coat protein [2]: 43.6 nM | apparent KD of MS2 coat protein [3]: 34 nM

UAAUAUCUGUAGGAUAUCAGUGGAGAACACGUAUGAGAAGGGCAGACAUGAGGAUCACCCAUGUAUAGGGUCCG [BotMod 6 - Jieux - Exclusion 6] (Eterna round: R97, puzzle: Exclusion 6)
apparent KD of MS2 coat protein (input ligand: FMN 200 uM): 59.1 nM | apparent KD of MS2 coat protein (input ligand: none): 20.2 nM

CUUUUGUGAGGAUAUCAGUAGUAAUACAAUAGUAUUACUACUGAGAAGGUACAUGAGGAUCACCCAUGUUCCUC [Ex4 344 Omei mod 4] (puzzle: Exclusion 4)
apparent KD of MS2 coat protein [2]: 17.9 nM

CUAUGUUAGCAGGAUAUGCCAUUAUUCUUUUUCGCAGAAGGGCUUACAUGAGGAUCACCCAUGUUACAUUUCUU [JR_E6_Sub086] (Eterna round: R96, puzzle: Exclusion 6)
apparent KD of MS2 coat protein (input ligand: FMN 200 uM): 42.6 nM | apparent KD of MS2 coat protein [4]: 14.9 nM | apparent KD of MS2 coat protein (input ligand: none): 18.5 nM

GAGUGACAUGAGGAUCACCCAUGUGAGGAUAUCGGACGGACCUUGUUGGCUUCCGCCGCGAGAAGGCACCUCGG [Exclusion 1 V27] (puzzle: Exclusion 1)
apparent KD of MS2 coat protein [2]: 32.5 nM

GGGCCCGGAGGAUAUACAAUGGGCCCGGGAAAUUGGGCCCUACAUGAGGAUCACCCAUGUAGAAGGCCGGGCCC [-40.2, -38.1 kcal A 24%, 5c,0] (Eterna round: R97, puzzle: Exclusion 2)
apparent KD of MS2 coat protein (input ligand: FMN 200 uM): 16.1 nM | apparent KD of MS2 coat protein (input ligand: none): 12.5 nM

AGAUCGUCAGGAUAUACAUGAGGAUCACCCAUGUACUGUCUAAAUUUGACUGUAAGAUGUAGAAGGGACGAUCG [Exclusion 3 (MOD9 of #1 Marzena11)] (Eterna round: R97, puzzle: Exclusion 3)
apparent KD of MS2 coat protein (input ligand: FMN 200 uM): 67.3 nM | apparent KD of MS2 coat protein (input ligand: none): 25.8 nM

CUAUUCCGAGGAUAUACAUGAGGAUCACCCAUGUCGGGCCUCUGGCCUAAGGCCGAAAGUAGAAGGUGGGUUUC [JL Riri mod 10] (puzzle: Exclusion 3)
apparent KD of MS2 coat protein [2]: 54.2 nM

GCAGCUAAUGCAGGAUAUCAGCACGUUUAGUGCUGAGAAGGGCACAUGAGGAUCACCCAUGUGAUCAAUUAAUAUUAAUGCUGC [ENG1/11-B2] (Eterna round: R96, puzzle: Exclusion NG 1)
apparent KD of MS2 coat protein (input ligand: FMN 200 uM): 152 nM | apparent KD of MS2 coat protein [4]: 23.1 nM | apparent KD of MS2 coat protein (input ligand: none): 31 nM

CAACCACAUGAGGAUCACCCAUGUGAGGAUAUGAUACUAUGUACUUCGGUACAUAGUAUCAGAAGGCACAGGUG [Ex1-3: 60] (puzzle: Exclusion 1)
apparent KD of MS2 coat protein [2]: 83.2 nM

GUUCCACGAGGAUAUGAGGGCAACUACAUGAGGAUCACCCAUGUGAGCGAUCCUCAGAAGUCAGAAGGCGUGGAGA [Eternabot (L2) Solution 77] (Eterna round: R97, puzzle: Exclusion 5)
apparent KD of MS2 coat protein (input ligand: FMN 200 uM): 63.7 nM | apparent KD of MS2 coat protein (input ligand: none): 70.4 nM

UUUUAGCAAGCGAGAUCCCACAUGAGGAUCACCCAUGUGCAUCCAGAAUUACUGGGUGCAAAAGCUCGUCUUAUAUA [Winner reversed engineered] (Eterna round: R97, puzzle: Sensor, turn-off variant 1)
apparent KD of MS2 coat protein (input ligand: FMN 200 uM): 54.9 nM | apparent KD of MS2 coat protein (input ligand: none): 50.1 nM
